Measurements taken from IntAct's records for PubMed 31515488.

B1: Polymerase delta-interacting protein 3 (Homo sapiens), Q9BY77 (parent)
chain: MADISLDELIRKRGAAAKGRLNARPGVGGVRSRVGIQQGLLSQSTRTATFQQRFDARQKIGLSDARLKLGVKDAREKLLQKDARFRIKGKVQDAREMLNSRKQQTTVPQKPRQVADAREKISLKRSSPAAFINPPIGTVTPALKLTKTIQVPQQKAMAPLHPHPAGMRINVVNNHQAKQNLYDLDEDDDGIASVPTKQMKFAASGGFLHHMAGLSSSKLSMSKALPLTKVVQNDAYTAPALPSSIRTKALTNMSRTLVNKEEPPKELPAAEPVLSPLEGTKMTVNNLHPRVTEEDIVELFCVCGALKRARLVHPGVAEVVFVKKDDAITAYKKYNNRCLDGQPMKCNLHMNGNVITSDQPILLRLSDSPSMKKESELPRRVNSASSSNPPAEVDPDTILKALFKSSGASVTTQPTEFKIKL
partner: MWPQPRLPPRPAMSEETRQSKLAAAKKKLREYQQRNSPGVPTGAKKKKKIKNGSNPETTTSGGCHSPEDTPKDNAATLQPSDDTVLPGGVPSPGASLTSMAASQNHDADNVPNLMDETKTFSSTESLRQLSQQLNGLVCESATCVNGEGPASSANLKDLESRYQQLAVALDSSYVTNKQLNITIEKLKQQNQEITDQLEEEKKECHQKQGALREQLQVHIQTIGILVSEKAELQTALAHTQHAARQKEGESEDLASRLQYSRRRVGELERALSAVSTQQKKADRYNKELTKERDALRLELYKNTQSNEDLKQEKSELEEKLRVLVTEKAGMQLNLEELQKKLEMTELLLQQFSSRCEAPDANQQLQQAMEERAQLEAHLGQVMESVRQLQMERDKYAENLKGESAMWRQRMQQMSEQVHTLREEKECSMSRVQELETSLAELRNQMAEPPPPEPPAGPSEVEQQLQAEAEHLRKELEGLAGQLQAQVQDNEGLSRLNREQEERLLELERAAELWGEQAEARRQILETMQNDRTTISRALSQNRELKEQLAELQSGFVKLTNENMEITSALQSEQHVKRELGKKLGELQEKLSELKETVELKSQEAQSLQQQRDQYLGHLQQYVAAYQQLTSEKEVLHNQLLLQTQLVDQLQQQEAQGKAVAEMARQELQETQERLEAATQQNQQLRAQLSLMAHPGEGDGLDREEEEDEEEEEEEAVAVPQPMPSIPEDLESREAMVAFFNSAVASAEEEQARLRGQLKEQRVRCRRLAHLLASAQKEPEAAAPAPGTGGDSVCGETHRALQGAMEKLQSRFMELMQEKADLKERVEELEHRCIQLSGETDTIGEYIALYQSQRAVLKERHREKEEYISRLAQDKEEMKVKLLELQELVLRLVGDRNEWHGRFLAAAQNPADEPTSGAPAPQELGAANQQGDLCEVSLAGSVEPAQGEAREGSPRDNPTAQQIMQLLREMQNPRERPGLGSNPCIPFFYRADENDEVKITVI
B2: Syntaxin-12 (Homo sapiens), Q86Y82 (parent)
chain: MSYGPLDMYRNPGPSGPQLRDFSSIIQTCSGNIQRISQATAQIKNLMSQLGTKQDSSKLQENLQQLQHSTNQLAKETNELLKELGSLPLPLSTSEQRQQRLQKERLMNDFSAALNNFQAVQRRVSEKEKESIARARAGSRLSAEERQREEQLVSFDSHEEWNQMQSQEDEVAITEQDLELIKERETAIRQLEADILDVNQIFKDLAMMIHDQGDLIDSIEANVESSEVHVERATEQLQRAAYYQKKSRKKMCILVLVLSVIILILGLIIWLVYKTK
B3: Regulator of G-protein signaling 20 (Homo sapiens), O76081 (parent)
chain: MPQLSQDNQECLQKHFSRPSIWTQFLPLFRAQRYNTDIHQITENEGDLRAVPDIKSFPPAQLPDSPAAPKLFGLLSSPLSSLARFFSHLLRRPPPEAPRRRLDFSPLLPALPAARLSRGHEELPGRLSLLLGAALALPGRPSGGRPLRPPHPVAKPREEDATAGQSSPMPQMGSERMEMRKRQMPAAQDTPGAAPGQPGAGSRGSNACCFCWCCCCSCSCLTVRNQEDQRPTIASHELRADLPTWEESPAPTLEEVNAWAQSFDKLMVTPAGRNAFREFLRTEFSEENMLFWMACEELKKEANKNIIEEKARIIYEDYISILSPKEVSLDSRVREVINRNMVEPSQHIFDDAQLQIYTLMHRDSYPRFMNSAVYKDLLQSLSEKSIEA
partner: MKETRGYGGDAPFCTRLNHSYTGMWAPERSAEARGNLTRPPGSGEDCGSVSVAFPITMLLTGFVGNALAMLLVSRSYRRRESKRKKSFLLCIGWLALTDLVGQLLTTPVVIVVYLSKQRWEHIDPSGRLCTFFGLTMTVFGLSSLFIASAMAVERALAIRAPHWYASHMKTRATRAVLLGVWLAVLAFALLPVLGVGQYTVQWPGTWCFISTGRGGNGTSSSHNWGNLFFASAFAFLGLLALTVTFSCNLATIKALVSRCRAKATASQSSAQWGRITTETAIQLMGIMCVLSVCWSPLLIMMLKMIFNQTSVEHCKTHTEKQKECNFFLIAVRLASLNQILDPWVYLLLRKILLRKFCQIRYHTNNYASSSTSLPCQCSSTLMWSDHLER
B4: Fas-activated serine/threonine kinase (Homo sapiens), Q14296-1 (parent)
chain: MRRPRGEPGPRAPRPTEGATCAGPGESWSPSPNSMLRVLLSAQTSPARLSGLLLIPPVQPCCLGPSKWGDRPVGGGPSAGPVQGLQRLLEQAKSPGELLRWLGQNPSKVRAHHYSVALRRLGQLLGSRPRPPPVEQVTLQDLSQLIIRNCPSFDIHTIHVCLHLAVLLGFPSDGPLVCALEQERRLRLPPKPPPPLQPLLRGGQGLEAALSCPRFLRYPRQHLISSLAEARPEELTPHVMVLLAQHLARHRLREPQLLEAIAHFLVVQETQLSSKVVQKLVLPFGRLNYLPLEQQFMPCLERILAREAGVAPLATVNILMSLCQLRCLPFRALHFVFSPGFINYISGTPHALIVRRYLSLLDTAVELELPGYRGPRLPRRQQVPIFPQPLITDRARCKYSHKDIVAEGLRQLLGEEKYRQDLTVPPGYCTDFLLCASSSGAVLPVRTQDPFLPYPPRSCPQGQAASSATTRDPAQRVVLVLRERWHFCRDGRVLLGSRALRERHLGLMGYQLLPLPFEELESQRGLPQLKSYLRQKLQALGLRWGPEGG
B5: Syntenin-2 (Homo sapiens), Q9H190 (parent)
chain: MSSLYPSLEDLKVDQAIQAQVRASPKMPALPVQATAISPPPVLYPNLAELENYMGLSLSSQEVQESLLQIPEGDSTAVSGPGPGQMVAPVTGYSLGVRRAEIKPGVREIHLCKDERGKTGLRLRKVDQGLFVQLVQANTPASLVGLRFGDQLLQIDGRDCAGWSSHKAHQVVKKASGDKIVVVVRDRPFQRTVTMHKDSMGHVGFVIKKGKIVSLVKGSSAARNGLLTNHYVCEVDGQNVIGLKDKKIMEILATAGNVVTLTIIPSVIYEHMVKKLPPVLLHHTMDHSIPDA
partner: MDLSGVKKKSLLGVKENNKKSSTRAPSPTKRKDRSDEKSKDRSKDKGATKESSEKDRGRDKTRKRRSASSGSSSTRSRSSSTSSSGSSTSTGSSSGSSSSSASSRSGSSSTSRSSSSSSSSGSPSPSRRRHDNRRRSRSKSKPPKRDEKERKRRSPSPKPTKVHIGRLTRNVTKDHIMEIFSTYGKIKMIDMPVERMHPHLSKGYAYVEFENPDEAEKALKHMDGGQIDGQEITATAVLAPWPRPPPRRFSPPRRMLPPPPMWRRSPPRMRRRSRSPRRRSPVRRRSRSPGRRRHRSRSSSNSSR
B6: E3 ubiquitin-protein ligase TRIM32 (Homo sapiens), Q13049 (parent)
chain: MAAAAASHLNLDALREVLECPICMESFTEEQLRPKLLHCGHTICRQCLEKLLASSINGVRCPFCSKITRITSLTQLTDNLTVLKIIDTAGLSEAVGLLMCRSCGRRLPRQFCRSCGLVLCEPCREADHQPPGHCTLPVKEAAEERRRDFGEKLTRLRELMGELQRRKAALEGVSKDLQARYKAVLQEYGHEERRVQDELARSRKFFTGSLAEVEKSNSQVVEEQSYLLNIAEVQAVSRCDYFLAKIKQADVALLEETADEEEPELTASLPRELTLQDVELLKVGHVGPLQIGQAVKKPRTVNVEDSWAMEATASAASTSVTFREMDMSPEEVVASPRASPAKQRGPEAASNIQQCLFLKKMGAKGSTPGMFNLPVSLYVTSQGEVLVADRGNYRIQVFTRKGFLKEIRRSPSGIDSFVLSFLGADLPNLTPLSVAMNCQGLIGVTDSYDNSLKVYTLDGHCVACHRSQLSKPWGITALPSGQFVVTDVEGGKLWCFTVDRGSGVVKYSCLCSAVRPKFVTCDAEGTVYFTQGLGLNLENRQNEHHLEGGFSIGSVGPDGQLGRQISHFFSENEDFRCIAGMCVDARGDLIVADSSRKEILHFPKGGGYSVLIREGLTCPVGIALTPKGQLLVLDCWDHCIKIYSYHLRRYSTP

Variants of: B1
Conditions: with goga2_human GOLGA2, Q08379

Row | Variant | effect of a mutation on the interaction
1 | R118Q | disrupting interaction strength

Variants of: B2
Conditions: with dtx2_human DTX2, Q86UW9
Chain of dtx2_human DTX2, Q86UW9 (Q86UW9 whole entry): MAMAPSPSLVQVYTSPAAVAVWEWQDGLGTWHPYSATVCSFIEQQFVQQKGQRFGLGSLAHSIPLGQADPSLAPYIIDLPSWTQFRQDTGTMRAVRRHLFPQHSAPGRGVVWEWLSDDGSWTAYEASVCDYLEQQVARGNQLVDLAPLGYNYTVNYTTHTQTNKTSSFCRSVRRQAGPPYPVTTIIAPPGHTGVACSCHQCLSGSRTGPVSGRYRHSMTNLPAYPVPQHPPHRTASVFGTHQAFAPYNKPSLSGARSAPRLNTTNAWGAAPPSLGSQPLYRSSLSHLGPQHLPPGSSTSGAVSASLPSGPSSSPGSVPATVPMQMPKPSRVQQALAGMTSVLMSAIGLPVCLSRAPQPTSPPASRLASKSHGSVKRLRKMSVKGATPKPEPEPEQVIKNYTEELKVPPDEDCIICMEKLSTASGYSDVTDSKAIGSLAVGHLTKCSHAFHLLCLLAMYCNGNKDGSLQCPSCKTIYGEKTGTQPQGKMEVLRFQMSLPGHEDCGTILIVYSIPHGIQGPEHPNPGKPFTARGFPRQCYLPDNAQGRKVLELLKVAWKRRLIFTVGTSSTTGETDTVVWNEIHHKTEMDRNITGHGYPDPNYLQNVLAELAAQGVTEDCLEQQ

Row | Variant | effect of a mutation on the interaction
2 | P88R | with no effect

Variants of: B2
Conditions: with stx4_human STX4, Q12846
Chain of stx4_human STX4, Q12846 (Q12846 whole entry): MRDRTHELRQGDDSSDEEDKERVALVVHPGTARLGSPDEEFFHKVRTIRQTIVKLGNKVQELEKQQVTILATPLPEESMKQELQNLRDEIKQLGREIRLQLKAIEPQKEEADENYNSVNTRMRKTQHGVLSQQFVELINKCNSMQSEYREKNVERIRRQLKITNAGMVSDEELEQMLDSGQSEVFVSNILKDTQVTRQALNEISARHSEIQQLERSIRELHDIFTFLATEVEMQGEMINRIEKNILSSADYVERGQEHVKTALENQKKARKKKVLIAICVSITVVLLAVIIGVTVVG

Row | Variant | effect of a mutation on the interaction
3 | P88R | with no effect

Variants of: B3
Conditions: with pe2r3_human PTGER3, P43115

Row | Variant | effect of a mutation on the interaction
4 | H347Y | with no effect

Variants of: B4
Conditions: with wipf1_human WIPF1, O43516
Chain of wipf1_human WIPF1, O43516 (O43516 whole entry): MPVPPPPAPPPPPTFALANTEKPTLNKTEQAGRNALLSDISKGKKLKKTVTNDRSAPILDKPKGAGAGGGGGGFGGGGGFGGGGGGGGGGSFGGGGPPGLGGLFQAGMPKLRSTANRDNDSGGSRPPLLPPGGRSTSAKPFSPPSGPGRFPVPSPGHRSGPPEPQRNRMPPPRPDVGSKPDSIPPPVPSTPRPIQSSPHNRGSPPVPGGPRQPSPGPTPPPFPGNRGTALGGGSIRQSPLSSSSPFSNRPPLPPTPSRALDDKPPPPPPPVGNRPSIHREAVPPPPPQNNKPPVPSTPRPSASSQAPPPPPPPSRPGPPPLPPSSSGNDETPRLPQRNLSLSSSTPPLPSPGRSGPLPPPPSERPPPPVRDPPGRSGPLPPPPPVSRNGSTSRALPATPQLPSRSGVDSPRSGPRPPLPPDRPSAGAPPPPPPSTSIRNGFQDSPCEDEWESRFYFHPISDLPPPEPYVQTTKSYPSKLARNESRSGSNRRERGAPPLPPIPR

Row | Variant | effect of a mutation on the interaction
5 | V424L | disrupting interaction strength

Variants of: B4
Conditions: with mdfi_human MDFI

Row | Variant | effect of a mutation on the interaction
6 | V424L | disrupting interaction strength

Variants of: B5
Conditions: with rnps1_human RNPS1, Q15287

Row | Variant | effect of a mutation on the interaction
7 | G225R | disrupting interaction strength
8 | V182M | with no effect
9 | G242R | disrupting interaction strength

Variants of: B6
Conditions: with abi2_human ABI2, Q9NYB9
Chain of abi2_human ABI2, Q9NYB9 (Q9NYB9 whole entry): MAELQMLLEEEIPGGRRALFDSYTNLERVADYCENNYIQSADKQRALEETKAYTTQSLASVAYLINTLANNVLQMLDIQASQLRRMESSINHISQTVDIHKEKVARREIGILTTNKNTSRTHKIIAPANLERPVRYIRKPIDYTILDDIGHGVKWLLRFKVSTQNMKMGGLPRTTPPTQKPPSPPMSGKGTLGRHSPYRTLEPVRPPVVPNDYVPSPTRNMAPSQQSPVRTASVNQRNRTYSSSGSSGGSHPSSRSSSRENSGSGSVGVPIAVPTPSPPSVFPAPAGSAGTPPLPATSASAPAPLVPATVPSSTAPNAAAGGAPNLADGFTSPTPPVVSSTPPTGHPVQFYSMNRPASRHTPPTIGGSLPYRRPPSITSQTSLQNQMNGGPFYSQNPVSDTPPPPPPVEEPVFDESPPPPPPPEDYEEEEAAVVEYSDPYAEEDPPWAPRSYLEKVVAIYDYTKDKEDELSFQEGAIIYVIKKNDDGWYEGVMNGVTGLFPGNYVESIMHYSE

Row | Variant | effect of a mutation on the interaction
10 | E547A | disrupting interaction strength

Variants of: B6
Conditions: with pde9a_human PDE9A

Row | Variant | effect of a mutation on the interaction
11 | E547A | disrupting interaction strength

Variants of: B6
Conditions: with sdcb1_human SDCBP

Row | Variant | effect of a mutation on the interaction
12 | E547A | disrupting interaction strength
